From publication PMC5435892 (Genes & Development, 2017) come the findings set out here.

The target of one data set is T1, SUMO-Ulp2^781–873 (S. cerevisiae, UniProt P40537 781-873).
T1 sequence (looked up): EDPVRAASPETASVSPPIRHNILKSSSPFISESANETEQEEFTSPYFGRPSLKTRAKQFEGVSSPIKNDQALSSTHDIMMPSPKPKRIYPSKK
The data set is described as follows: SEC-MALS. (SEC sorts molecules by how far they enter the pores of the column.)

The data set “crystal structure” deals with the molecule itself. The data set is described as follows: crystal structure.
A further data set concerns the target T2, His6-Csm1 (full-length) (S. cerevisiae, UniProt P25651 1-190).
T2 sequence (looked up): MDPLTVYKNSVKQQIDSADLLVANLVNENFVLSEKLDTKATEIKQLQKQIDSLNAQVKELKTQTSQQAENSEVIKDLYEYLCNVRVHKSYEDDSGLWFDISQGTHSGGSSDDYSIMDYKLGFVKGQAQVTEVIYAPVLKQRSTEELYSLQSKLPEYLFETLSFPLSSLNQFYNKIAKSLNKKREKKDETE
Kind of data set: pull-down.

Another data set concerns the target T3, His6-Csm1^69–190 (S. cerevisiae, UniProt P25651 69-190).
T3 sequence (looked up): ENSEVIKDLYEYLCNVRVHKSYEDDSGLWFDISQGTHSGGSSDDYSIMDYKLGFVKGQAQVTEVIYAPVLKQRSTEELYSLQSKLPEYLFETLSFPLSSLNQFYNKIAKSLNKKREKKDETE
The data set is described as follows: ITC. (In general: Isothermal titration calorimetry measures the heat released or taken up as one component is titrated into another.)

Data set [1] concerns the target T4, Ulp2^825–844–Tof2^384–400 fusion (S. cerevisiae, UniProt P40537 825-844; Q02208 384-400).
T4 chain (looked up): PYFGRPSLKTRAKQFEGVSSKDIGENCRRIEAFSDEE
The data set is described as follows: co-expression in E. coli and co-purification.

Residue numbers refer to the chain shown, from its start. Names and notes keep the numbering of the source.

B1: Csm1^69–181 (untagged, coexpressed) (domain or fragment, S. cerevisiae, UniProt P25651 69-181, looked up)
chain: ENSEVIKDLYEYLCNVRVHKSYEDDSGLWFDISQGTHSGGSSDDYSIMDYKLGFVKGQAQVTEVIYAPVLKQRSTEELYSLQSKLPEYLFETLSFPLSSLNQFYNKIAKSLNK
In the case of B1, the figures for the “stoichiometry N” value with SUMO-Ulp2^781–873 and in the data set “crystal structure” were 1 Csm1 per Ulp2 (2:2) and 2, respectively.

B2: GST-Ulp2^781–873 F827A (domain or fragment, S. cerevisiae, UniProt P40537 781-873, looked up)
chain: T1 sequence (looked up) with F47A
Turning to B2, in the data set with His6-Csm1 (full-length), the binding result is “binds”.

B3: GST-Ulp2^781–873 F839A (domain or fragment, S. cerevisiae, UniProt P40537 781-873, looked up)
chain: T1 sequence (looked up) with F59A
With B3, the binding result with His6-Csm1 (full-length) is given as “binds”.

B4: His6-GST-Ulp2^781–873 (domain or fragment, S. cerevisiae, UniProt P40537 781-873, looked up)
chain: T1 sequence (looked up)
Regarding B4, in the data set with His6-Csm1^69–190, the Ka stood at 1.07e+06 M⁻¹, the dH is -8.613 ± 0.0517 kcal/mol and the “stoichiometry N” value was found to be 0.91 ± 0.004.

B5: His6-GST-Ulp2^781–873 F839D (domain or fragment, S. cerevisiae, UniProt P40537 781-873, looked up)
chain: T1 sequence (looked up) with F59D
Consider B5, for which, in the data set with His6-Csm1^69–190, the Ka was 55800 M⁻¹, the dH was -1.08 ± 0.0584 kcal/mol and the “stoichiometry N” value is 0.46 ± 0.02.

B6: Csm1^69–190 (untagged, coexpressed) (domain or fragment, S. cerevisiae, UniProt P25651 69-190, looked up)
chain: T3 sequence (looked up)
As to B6, in data set [1], the “stoichiometry N” value was 1 Csm1 per fusion chain (2:2).

By stoichiometry N is commonly meant a count of units in the complex or per binding partner.
